The results in this text go back to article PMC7375649, “Varicella zoster virus encodes a viral decoy RHIM to inhibit cell death” (PLoS Pathogens, 2020).

This series deals with the molecule itself. The series is described as follows: single molecule fluorescence confocal spectroscopy (two-colour coincidence); proteins alone or one mCherry-tagged and one YPet-tagged protein mixed, diluted out of 8 M urea to 0.35-0.7 uM in 25 mM NaH2PO4, 150 mM NaCl, 0.5 mM DTT, pH 7.4; room temperature; 488 and 561 nm lasers.

B1: YPet-RIPK3_(387-518) (domain or fragment)
chain: TSSDSMAQPPQTPETSTFRNQMPSPTSTGTPSPGPRGNQGAERQGMNWSCRTPEPNPVTGRPLVNIYNCSGVQVGDNNYLTMQQTTALPTWGLAPSGKGRGLQHPPPVGSQEGPKDPEAWSRPQGWYNHSGK
notes: human RIPK3, RHIM-containing region, residues 387-518; source: E. coli BL21(DE3) pLysS, purified from inclusion bodies under denaturing conditions (Ni-NTA)
Turning to B1, the binding result was “binds”.

B2: YPet-ZBP1_(170-355) (domain or fragment)
chain: SGRRAKSASIIYQHNPINMICQNGPNSWISIANSEAIQIGHGNIITRQTVSREDGSAGPRHLPSMAPGDSSTWGTLVDPWGPQDIHMEQSILRRVQLGHSNEMRLHGVPSEGPAHIPPGSPPVSATAAGPEASFEARIPSPGTHPEGEAAQRIHMKSCFLEDATIGNSNKMSISPGVAGPGGVAGS
notes: human ZBP1, RHIM-containing region, residues 170-355; also called YPet-ZBP1 RHIM; source: E. coli BL21(DE3) pLysS, purified from inclusion bodies under denaturing conditions (Ni-NTA)
B2: the binding result was “binds”.
